In PMC9156751, “Dynamic arrest and aging of biomolecular condensates are modulated by low-complexity domains, RNA and biochemical activity” (Nature Communications, 2022):

Target: the molecule itself
Assay: dynamic light scattering; 5 µM Dhh1 with an excess of 5 mM ATP/MgCl2, no RNA; reference buffer 90 mM KCl, 30 mM HEPES-KOH pH 7.4, 2 mM MgCl2; Zetasizer Nano ZS, 173° backscattering; combined with microscopy

B1: mCherry-tagged Dhh1^48–425 (domain or fragment, yeast, UniProt P39517 48-425, looked up)
chain: FEDFYLKRELLMGIFEAGFEKPSPIQEEAIPVAITGRDILARAKNGTGKTAAFVIPTLEKVKPKLNKIQALIMVPTRELALQTSQVVRTLGKHCGISCMVTTGGTNLRDDILRLNETVHILVGTPGRVLDLASRKVADLSDCSLFIMDEADKMLSRDFKTIIEQILSFLPPTHQSLLFSATFPLTVKEFMVKHLHKPYEINLMEELTLKGITQYYAFVEERQKLHCLNTLFSKLQINQAIIFCNSTNRVELLAKKITDLGYSCYYSHARMKQQERNKVFHEFRQGKVRTLVCSDLLTRGIDIQAVNVVINFDFPKTAETYLHRIGRSGRFGHLGLAINLINWNDRFNLYKIEQELGTEIAAIPATIDKSLYVAENDET
notes: DEAD-box ATPase Dhh1 of yeast, residues 48-425: the two RecA domains without the N- and C-terminal low-complexity domains; also called tail-less Dhh1^48–425; LCD-lacking variant; source: E. coli BL21-Gold (DE3), purified (Ni2+ Chelating Sepharose, Superdex 75 SEC)
**Q.** Does B1 bind?
**A.** binds
